Earlier results, collected in publication PMC13348789.

Molecular target: IL-2Rβ/γc intermediate-affinity receptor (Homo sapiens) (UniProt P14784)
Chain of UniProt P14784 (P14784 27-240, chain 1 of 2): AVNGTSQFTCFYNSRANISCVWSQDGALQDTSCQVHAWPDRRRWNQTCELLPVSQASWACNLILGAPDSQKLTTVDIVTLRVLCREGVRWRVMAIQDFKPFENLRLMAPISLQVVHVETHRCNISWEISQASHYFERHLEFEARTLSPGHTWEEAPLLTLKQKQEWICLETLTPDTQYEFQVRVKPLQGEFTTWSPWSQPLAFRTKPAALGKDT
Chain of UniProt P14784 (P31785 23-262, chain 2 of 2, further chain): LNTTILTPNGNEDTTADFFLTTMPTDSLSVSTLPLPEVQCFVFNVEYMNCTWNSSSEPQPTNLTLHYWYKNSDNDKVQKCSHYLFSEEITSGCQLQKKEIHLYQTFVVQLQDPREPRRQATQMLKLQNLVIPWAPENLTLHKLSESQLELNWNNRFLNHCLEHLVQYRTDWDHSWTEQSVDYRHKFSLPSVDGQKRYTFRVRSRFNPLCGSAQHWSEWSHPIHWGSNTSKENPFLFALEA

## IL-2 (from UniProt P60568)
  Kd: 1 nM
